From patent publication US20240352121A1, “LAIR-1 AGONISTIC ANTIBODIES AND METHODS OF USE THEREOF” (NEXTCURE, INC., priority 2023, published 2024)

Assays:
Format in all cases: cell-based, human
LAIR-1 = experiment: Ligand (collagen) mediated LAIR-1 signaling blockade in UT-140 reporter cells
Procedure: FIGS. 24A-24C display h11B3 LAIR-1 mAbs, containing a variable light chain of SEQ ID NO: 16 and a variable heavy chain of SEQ ID NO:27, binds LAIR-1 and blocks its functional signaling triggered by collagen-I in UT-140 reporter cells. Seed 1e4 UT140 reporter cells/100 μl in 96-well flat bottom plate. LAIR1 signaling was induced by 10 μg/ml coated collagen treatment. Blocking of LAIR1 signaling by such h11B3 LAIR-1 mAbs was determined by addition of different concentrations of such h11B3 LAIR-1 mAbs in 100 μL per well. Cultures were maintained for 20 hours, and the GFP was read on flow cytometry.
FIGS. 25A-25B display h11B3 LAIR-1 mAbs, containing a variable light chain of SEQ ID NO: 16 and a variable heavy chain of SEQ ID NO:27, blocks collagen-1 signaling. […] Reporter activation was quantified by flow cytometry. […]
For cell binding assays, 5e4 UT-140 cells or mouse LAIR-1-transfected 293T cells per well were plated in 200 μL PBS in a 96-well round bottom plate, centrifuged for 4 minutes at 500×g for a single wash, and blocked for 10 minutes on ice with flow cytometry buffer (PBS+2% FBS+0.1 mM EDTA) containing 1:50 dilution of TruStain™ Fc block (Biolegend, San Diego, CA). […] Cells were then washed 3 times as previously described and binding was measured by flow cytometry using an Attune NXT flow cytometer. […] GFP expression was measured by flow cytometry using an Attune NXT Flow Cytometer.

[1] = tested on: MV4-11-LAIR-1 Overexpressing cells; experiment: In vitro culture of MV4-11-LAIR-1 overexpressing cells with or without anti-IgG crosslinking
Procedure: FIGS. 4A-4O show the collagen matrix is vital to LAIR-1 induced AML cell death. (FIGS. 4A-C). Flow cytometry quantification of primary live, dead, or apoptotic total blood leukocytes after ex vivo treatment with 10 μg/mL IgG isotype control (gray) or LAIR-1 mAb (red) in the presence (FIG. 4A) or absence (FIG. 4B) of exogenous collagen, or (FIG. 4C), CD451^Lo SSC^Lo blast cells in the presence of isotype control or LAIR-1 mAb. N=3 technical replicates. […] Each dot represents an individual donor. Red shading highlights surface expression >20000 arbitrary units. Blue shading highlights expression <20000 units. Line represents simple linear regression. […] N=4-7 donors. […] Mean pixel density from Western blotting normalized to isotype control condition and graphed relative to total SHP-1. N=3 technical replicates. FIGS. 4G and 4H show mean pixel density from phospho-array of AML patient PBMCs treated ex vivo with 10 μg/mL of IgG isotype control (gray), 50 μg/mL coated collagen (white), or 10 μg/mL LAIR-1 mAb+coated collagen (red) for G, MAPK activity or (FIG. 4H), mTOR and NF-kB activity. N=2 technical replicates. […] FIGS. 4M and 4N) 4E-BP1 expression as measured by Lumit assay (FIG. 4M) or cleaved caspase-7 as measured by Western blot (FIG. 4N) of cells treated as shown in FIGS. 4I-4K. Mean pixel density normalized to histone-3 for triplicate samples. […] Values normalized to isotype for each respective condition. n=3-4 technical replicates. P values calculated by Student's t test. Error bars represent SEM.

AML PBMCs = experiment: ADCC assay, AML patient PBMCs with healthy donor NK cells; settings: 3:1 Target:Effector ratio, 4 hours
Procedure: ADCC was measured using the CytoTox 96® Non-Radioactive Cytotoxicity Assay (Promega) following the manufacturer's instructions. Briefly, AML patient PBMCs were mixed with healthy donor NK cells at a 3:1 Target:Effector ratio in complete RPMI containing the indicated concentration of soluble h11B3 or Fc-G1 isotype control. Mixed cells were incubated for 4 hours at 37 deg C. Test wells were run in quadruplicate. AML PBMCs-Donor #200018616, newly diagnosed/untreated. NK cells-Healthy Donor #83, isolated from PBMCs via StemCell Kit #17955 following manufacturer's instructions. CytoTox 96® Non-Radioactive Cytotoxicity Assay Promega Cat #G1780. % Cytotoxicity quantified by target cell LDH release. % Cytotoxicity=((Test Well LDH Release−Effector Cell Spontaneous Release−Target Cell Spontaneous Release)/(Target Cell Max Release−Target Cell Spontaneous Release))*100. Target Cells=AML PBMCs Donor #200018616; Effector Cells=NK cells isolated from healthy Donor #83 PBMCs. […] ADCC was measured using the Toxilight Bioluminescent Cytotoxicity Assay (Lonza)) following the manufacturer's instructions. […] Toxilight Bioluminescent Cytotoxicity Assay kit Lonza Cat #LT17-217. % Cytotoxicity quantified by target cell adenylate kinase release; ADCC calculated as described above. […]

B1: LAIR-1 mAb: humanized agonist anti-LAIR-1 mAb, IgG1 backbone; h11B3 VL-2 (SEQ ID NO: 16), h11B3 VH-3 (SEQ ID NO: 27) (antibody, V domains shown)
VH: EVQLVESGGGLVQPGGSLKLSCAASGFTFNTNAMYWVRQAPGKGLEWVGRIRSKSSNYATYYAASVKGRFTISRDDSKNTLYLQMNSLKTEDTAVYYCVRGGSGFFAYWGQGTLVTVSS
VL: DIQMTQSPSSLSASLGDRVTITCKASEDIYIRLAWYQQKPGKAPRLLISTATSLETGVPSRFSGSGSGTDYTFTISSLQPEDIATYYCQQYWSTPYTFGGGTRLEIK
modifications: IgG1 constant regions; Synthetic: h11B3 VH-3; Synthetic: h11B3 VL-2
With B1 the “collagen binding to LAIR-1” value (LAIR-1) was “blocks collagen binding”, the “growth of LAIR-1 Overexpressing cells” value ([1]; LAIR-1 mAb alone, vs isotype control) was “only moderately suppressed” and the proliferation of cells ([1]; anti-IgG crosslinking conditions, after 3 days of culture) was “completely inhibited”. For the same molecule, the “4E-BP1 (mTORC1 target protein)” value ([1]; crosslinking conditions) was “significant suppression”, the “activated caspase-7” value ([1]; crosslinking conditions) was “substantial increase” and the ADCC (AML PBMCs) was “induces AML cell death through antibody dependent cytotoxicity (ADCC)”.
